The target in test [1] is T1, CD28-GFP (human, UniProt P10747 19-220).
T1 construct: human CD28, member of the human Ig superfamily library; source: HEK293F, transfected, on cells; not shown: GFP, C-terminal, kept
In words: flow cytometry on cells; cell-cell conjugates: HEK293F cells expressing 92 B7-1–mCherry point mutants (IgV domain) against HEK293F cells expressing CTLA-4–GFP, CD28-GFP or p75NTR-GFP; percent of WT binding. Particulars: partners not purified. In general terms: A flow cytometer gives signals particle by particle.

In test [2] the target is T2, full-length human p75 neurotrophin receptor fused at the cytoplasmic C-terminus to GFP (human, UniProt P08138 29-427).
T2 construct: As query against the GFP-tagged library it carried the opposite colour tag (mCherry); kept as one molecule; also called p75^NTR; NGFR; source: HEK293 suspension cells, transiently transfected, on cells; not shown: GFP, C-terminal, kept
T2 sequence (looked up): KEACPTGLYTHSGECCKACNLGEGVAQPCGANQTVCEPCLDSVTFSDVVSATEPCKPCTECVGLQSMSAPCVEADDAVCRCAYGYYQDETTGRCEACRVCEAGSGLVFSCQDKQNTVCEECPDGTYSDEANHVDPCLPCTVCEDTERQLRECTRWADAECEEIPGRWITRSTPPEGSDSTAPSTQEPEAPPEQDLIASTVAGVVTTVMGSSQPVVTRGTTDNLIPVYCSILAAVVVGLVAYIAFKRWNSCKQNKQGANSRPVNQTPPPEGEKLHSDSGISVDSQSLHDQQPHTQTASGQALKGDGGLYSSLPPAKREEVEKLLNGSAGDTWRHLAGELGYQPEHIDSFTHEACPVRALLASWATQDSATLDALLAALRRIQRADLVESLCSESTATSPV
The description is as above. Particulars: partners not purified.

B1: hB7-1 E41A–mCherry (ligand, human, UniProt P33681 35-288, looked up)
chain: VIHVTKAVKEVATLSCGHNVSVEELAQTRIYWQKEKKMVLTMMSGDMNIWPEYKNRTIFDITNNLSIVILALRPSDEGTYECVVLKYEKDAFKREHLAEVTLSVKADFPTPSISDFEIPTSNIRRIICSTSGGFPEPHLSWLENGEELNAINTTVSQDPETELYAVSSKLDFNMTTNHSFMCLIKYGHLRVNQTFNWNTTKQEHFPDNLLPSWAITLISVNGIFVICCLTYCFAPRCRERRRNERLRRESVRPV
notes: human B7-1 (CD80), point mutant in the IgV domain; source: HEK293F, transfected, on cells
With B1, the “loss in binding relative to WT” value in test [1] was greater than 25%.

B2: hB7-1 S49A–mCherry (ligand, human, UniProt P33681 35-288, looked up)
chain: VIHVTKEVKEVATLACGHNVSVEELAQTRIYWQKEKKMVLTMMSGDMNIWPEYKNRTIFDITNNLSIVILALRPSDEGTYECVVLKYEKDAFKREHLAEVTLSVKADFPTPSISDFEIPTSNIRRIICSTSGGFPEPHLSWLENGEELNAINTTVSQDPETELYAVSSKLDFNMTTNHSFMCLIKYGHLRVNQTFNWNTTKQEHFPDNLLPSWAITLISVNGIFVICCLTYCFAPRCRERRRNERLRRESVRPV
notes: as for B1
Consider B2, for which the “loss in binding relative to WT” value in test [1] and in test [2] was greater than 25% throughout.

B3: hB7-1 I36D–mCherry (ligand, human, UniProt P33681 35-288, looked up)
chain: VDHVTKEVKEVATLSCGHNVSVEELAQTRIYWQKEKKMVLTMMSGDMNIWPEYKNRTIFDITNNLSIVILALRPSDEGTYECVVLKYEKDAFKREHLAEVTLSVKADFPTPSISDFEIPTSNIRRIICSTSGGFPEPHLSWLENGEELNAINTTVSQDPETELYAVSSKLDFNMTTNHSFMCLIKYGHLRVNQTFNWNTTKQEHFPDNLLPSWAITLISVNGIFVICCLTYCFAPRCRERRRNERLRRESVRPV
notes: as for B1
As to B3, the “loss in binding relative to WT” value in test [1] and in test [2] was greater than 25% each time.

B4: hB7-1 L131D–mCherry (ligand, human, UniProt P33681 35-288, looked up)
chain: VIHVTKEVKEVATLSCGHNVSVEELAQTRIYWQKEKKMVLTMMSGDMNIWPEYKNRTIFDITNNLSIVILALRPSDEGTYECVVLKYEKDAFKREHDAEVTLSVKADFPTPSISDFEIPTSNIRRIICSTSGGFPEPHLSWLENGEELNAINTTVSQDPETELYAVSSKLDFNMTTNHSFMCLIKYGHLRVNQTFNWNTTKQEHFPDNLLPSWAITLISVNGIFVICCLTYCFAPRCRERRRNERLRRESVRPV
notes: as for B1
B4: in test [1], the “loss in binding relative to WT” value was greater than 25%.

B5: hB7-1 K139D–mCherry (ligand, human, UniProt P33681 35-288, looked up)
chain: VIHVTKEVKEVATLSCGHNVSVEELAQTRIYWQKEKKMVLTMMSGDMNIWPEYKNRTIFDITNNLSIVILALRPSDEGTYECVVLKYEKDAFKREHLAEVTLSVDADFPTPSISDFEIPTSNIRRIICSTSGGFPEPHLSWLENGEELNAINTTVSQDPETELYAVSSKLDFNMTTNHSFMCLIKYGHLRVNQTFNWNTTKQEHFPDNLLPSWAITLISVNGIFVICCLTYCFAPRCRERRRNERLRRESVRPV
notes: as for B1
B5: the “loss in binding relative to WT” value in test [1] was greater than 25%.

B6: hB7-1 K127D–mCherry (ligand, human, UniProt P33681 35-288, looked up)
chain: VIHVTKEVKEVATLSCGHNVSVEELAQTRIYWQKEKKMVLTMMSGDMNIWPEYKNRTIFDITNNLSIVILALRPSDEGTYECVVLKYEKDAFDREHLAEVTLSVKADFPTPSISDFEIPTSNIRRIICSTSGGFPEPHLSWLENGEELNAINTTVSQDPETELYAVSSKLDFNMTTNHSFMCLIKYGHLRVNQTFNWNTTKQEHFPDNLLPSWAITLISVNGIFVICCLTYCFAPRCRERRRNERLRRESVRPV
notes: as for B1
For B6, the “loss in binding relative to WT” value in test [1] is greater than 25%.

B7: hB7-1 K120D–mCherry (ligand, human, UniProt P33681 35-288, looked up)
chain: VIHVTKEVKEVATLSCGHNVSVEELAQTRIYWQKEKKMVLTMMSGDMNIWPEYKNRTIFDITNNLSIVILALRPSDEGTYECVVLDYEKDAFKREHLAEVTLSVKADFPTPSISDFEIPTSNIRRIICSTSGGFPEPHLSWLENGEELNAINTTVSQDPETELYAVSSKLDFNMTTNHSFMCLIKYGHLRVNQTFNWNTTKQEHFPDNLLPSWAITLISVNGIFVICCLTYCFAPRCRERRRNERLRRESVRPV
notes: as for B1
In the case of B7, the “loss in binding relative to WT” value in test [1] was greater than 25%.

B8: hB7-1 V45D–mCherry (ligand, human, UniProt P33681 35-288, looked up)
chain: VIHVTKEVKEDATLSCGHNVSVEELAQTRIYWQKEKKMVLTMMSGDMNIWPEYKNRTIFDITNNLSIVILALRPSDEGTYECVVLKYEKDAFKREHLAEVTLSVKADFPTPSISDFEIPTSNIRRIICSTSGGFPEPHLSWLENGEELNAINTTVSQDPETELYAVSSKLDFNMTTNHSFMCLIKYGHLRVNQTFNWNTTKQEHFPDNLLPSWAITLISVNGIFVICCLTYCFAPRCRERRRNERLRRESVRPV
notes: as for B1
Take B8: the “loss in binding relative to WT” value in test [1] was greater than 25%.

B9: hB7-1 Y65A–mCherry (ligand, human, UniProt P33681 35-288, looked up)
chain: VIHVTKEVKEVATLSCGHNVSVEELAQTRIAWQKEKKMVLTMMSGDMNIWPEYKNRTIFDITNNLSIVILALRPSDEGTYECVVLKYEKDAFKREHLAEVTLSVKADFPTPSISDFEIPTSNIRRIICSTSGGFPEPHLSWLENGEELNAINTTVSQDPETELYAVSSKLDFNMTTNHSFMCLIKYGHLRVNQTFNWNTTKQEHFPDNLLPSWAITLISVNGIFVICCLTYCFAPRCRERRRNERLRRESVRPV
notes: as for B1
As to B9, the “loss in binding relative to WT” value in test [1] and in test [2] was greater than 25% in each case.

B10: hB7-1 K43D–mCherry (ligand, human, UniProt P33681 35-288, looked up)
chain: VIHVTKEVDEVATLSCGHNVSVEELAQTRIYWQKEKKMVLTMMSGDMNIWPEYKNRTIFDITNNLSIVILALRPSDEGTYECVVLKYEKDAFKREHLAEVTLSVKADFPTPSISDFEIPTSNIRRIICSTSGGFPEPHLSWLENGEELNAINTTVSQDPETELYAVSSKLDFNMTTNHSFMCLIKYGHLRVNQTFNWNTTKQEHFPDNLLPSWAITLISVNGIFVICCLTYCFAPRCRERRRNERLRRESVRPV
notes: as for B1
Take B10: the “loss in binding relative to WT” value in test [1] and in test [2] was greater than 25% each time.

B11: hB7-1 E69A–mCherry (ligand, human, UniProt P33681 35-288, looked up)
chain: VIHVTKEVKEVATLSCGHNVSVEELAQTRIYWQKAKKMVLTMMSGDMNIWPEYKNRTIFDITNNLSIVILALRPSDEGTYECVVLKYEKDAFKREHLAEVTLSVKADFPTPSISDFEIPTSNIRRIICSTSGGFPEPHLSWLENGEELNAINTTVSQDPETELYAVSSKLDFNMTTNHSFMCLIKYGHLRVNQTFNWNTTKQEHFPDNLLPSWAITLISVNGIFVICCLTYCFAPRCRERRRNERLRRESVRPV
notes: as for B1
As to B11, in test [1], the “loss in binding relative to WT” value was greater than 25%.

B12: hB7-1 Y121D–mCherry (ligand, human, UniProt P33681 35-288, looked up)
chain: VIHVTKEVKEVATLSCGHNVSVEELAQTRIYWQKEKKMVLTMMSGDMNIWPEYKNRTIFDITNNLSIVILALRPSDEGTYECVVLKDEKDAFKREHLAEVTLSVKADFPTPSISDFEIPTSNIRRIICSTSGGFPEPHLSWLENGEELNAINTTVSQDPETELYAVSSKLDFNMTTNHSFMCLIKYGHLRVNQTFNWNTTKQEHFPDNLLPSWAITLISVNGIFVICCLTYCFAPRCRERRRNERLRRESVRPV
notes: as for B1
With B12, in test [2], the “loss in binding relative to WT” value was greater than 25%.

B13: hB7-1 R63D–mCherry (ligand, human, UniProt P33681 35-288, looked up)
chain: VIHVTKEVKEVATLSCGHNVSVEELAQTDIYWQKEKKMVLTMMSGDMNIWPEYKNRTIFDITNNLSIVILALRPSDEGTYECVVLKYEKDAFKREHLAEVTLSVKADFPTPSISDFEIPTSNIRRIICSTSGGFPEPHLSWLENGEELNAINTTVSQDPETELYAVSSKLDFNMTTNHSFMCLIKYGHLRVNQTFNWNTTKQEHFPDNLLPSWAITLISVNGIFVICCLTYCFAPRCRERRRNERLRRESVRPV
notes: as for B1
With B13, the “loss in binding relative to WT” value in test [1] was greater than 25%.

B14: hB7-1 I36A–mCherry (ligand, human, UniProt P33681 35-288, looked up)
chain: VAHVTKEVKEVATLSCGHNVSVEELAQTRIYWQKEKKMVLTMMSGDMNIWPEYKNRTIFDITNNLSIVILALRPSDEGTYECVVLKYEKDAFKREHLAEVTLSVKADFPTPSISDFEIPTSNIRRIICSTSGGFPEPHLSWLENGEELNAINTTVSQDPETELYAVSSKLDFNMTTNHSFMCLIKYGHLRVNQTFNWNTTKQEHFPDNLLPSWAITLISVNGIFVICCLTYCFAPRCRERRRNERLRRESVRPV
notes: as for B1
Consider B14, for which the “loss in binding relative to WT” value in test [1] was greater than 25%.

B15: hB7-1 T39A–mCherry (ligand, human, UniProt P33681 35-288, looked up)
chain: VIHVAKEVKEVATLSCGHNVSVEELAQTRIYWQKEKKMVLTMMSGDMNIWPEYKNRTIFDITNNLSIVILALRPSDEGTYECVVLKYEKDAFKREHLAEVTLSVKADFPTPSISDFEIPTSNIRRIICSTSGGFPEPHLSWLENGEELNAINTTVSQDPETELYAVSSKLDFNMTTNHSFMCLIKYGHLRVNQTFNWNTTKQEHFPDNLLPSWAITLISVNGIFVICCLTYCFAPRCRERRRNERLRRESVRPV
notes: as for B1
B15: the “loss in binding relative to WT” value in test [1] and in test [2] was greater than 25% each time.

B16: hB7-1 K40D–mCherry (ligand, human, UniProt P33681 35-288, looked up)
chain: VIHVTDEVKEVATLSCGHNVSVEELAQTRIYWQKEKKMVLTMMSGDMNIWPEYKNRTIFDITNNLSIVILALRPSDEGTYECVVLKYEKDAFKREHLAEVTLSVKADFPTPSISDFEIPTSNIRRIICSTSGGFPEPHLSWLENGEELNAINTTVSQDPETELYAVSSKLDFNMTTNHSFMCLIKYGHLRVNQTFNWNTTKQEHFPDNLLPSWAITLISVNGIFVICCLTYCFAPRCRERRRNERLRRESVRPV
notes: human B7-1 (CD80), point mutant in the IgV domain; printed once as K40D and once as Y40D; also called Y40D; source: HEK293F, transfected, on cells
Take B16: the “loss in binding relative to WT” value in test [1] and in test [2] was greater than 25% each time.

The values are drawn from article PMC9663165, “Human immunomodulatory ligand B7-1 mediates synaptic remodeling via the p75 neurotrophin receptor” (The Journal of Clinical Investigation, 2022).
